# Measurements taken from IntAct's records for PubMed 10602480.
# B1: Death-associated protein kinase 3 (Rattus norvegicus (Rat)), O88764 (parent)
# chain: MSTFRQEDVEDHYEMGEELGSGQFAIVRKCQQKGTGMEYAAKFIKKRRLPSSRRGVSREEIEREVSILREIRHPNIITLHDVFENKTDVVLILELVSGGELFDFLAEKESLTEDEATQFLKQILDGVHYLHSKRIAHFDLKPENIMLLDKHAASPRIKLIDFGIAHRIEAGSEFKNIFGTPEFVAPEIVNYEPLGLEADMWSIGVITYILLSGASPFLGETKQETLTNISAVNYDFDEEYFSSTSELAKDFIRRLLVKDPKRRMTIAQSLEHSWIKVRRREDGARKPERRRLRAARLREYSLKSHSSMPRNTSYASFERFSRVLEDVAAAEQGLRELQRGRRQCRERVCALRVAAEQREARCRDGSAGLGRDLRRLRTELGRTEALRTRAQEEARAALLGAGGLKRRLCRLENRYDALAAQVAAEVQFVRDLVRALEQERLQAECGVR
# partner: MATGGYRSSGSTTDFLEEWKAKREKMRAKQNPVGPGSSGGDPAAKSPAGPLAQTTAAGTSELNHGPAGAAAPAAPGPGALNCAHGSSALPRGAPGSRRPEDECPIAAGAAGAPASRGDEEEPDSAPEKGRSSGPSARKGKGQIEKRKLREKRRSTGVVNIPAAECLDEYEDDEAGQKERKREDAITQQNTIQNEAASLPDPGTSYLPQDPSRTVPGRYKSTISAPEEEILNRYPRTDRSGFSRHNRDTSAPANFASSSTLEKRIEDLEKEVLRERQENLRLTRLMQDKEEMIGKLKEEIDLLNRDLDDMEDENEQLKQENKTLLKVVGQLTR
# Variants of: B1
# Details: with pawr_rat Pawr
row,Variant,effect of a mutation on the interaction
1,K42A,disrupting interaction
